Laboratory results from the RNAGym collection of RNA variant scans (doi:10.7554/elife.80360).

B1: CPEB3 Ribozyme (parent)
chain: GGGGGCCACAGCAGAAGCGUUCACGUCGCGGCCCCUGUCAGAUUCUGGUGAAUCUGCGAAUUCUGCUGU

Variants of: B1
Test: self-cleavage, relative activity (ratio to wild type); higher = more cleavage; co-transcriptional

Row | Variant | self-cleavage
1 | GGGAUCCACAGCAGAAGCGUUCACGUCGCGGCCCCUGUCAGAUUCUGGUGAAUCUGCGAAUUCUGCUGU [G4A G5U] | 0.0889
2 | GGGAGCCACAGCAGAAGCGUUCACGUCACGGCCCCUGUCAGAUUCUGGUGAAUCUGCGAAUUCUGCUGU [G4A G28A] | 0.117
3 | GGGAGCCACAGCAGAAGCGUUCACGUCGCGGCCCCUGUCAGAUUCUGGUGAAUCUGCGAAUUCGGCUGU [G4A U64G] | 0.672
4 | GGGAGCCACAGCAGAAGCGUUCACGUCGCGGCCCCUGUCAGAUUCUGGUGAAUCUGCGAAUUCAGCUGU [G4A U64A] | 0.7
5 | GGGAGCCACAGCAGAAGCGUUCACGUCGCGGCCCCUGUCAGAUUCUGGUGAAUCUGCGAAUUCCGCUGU [G4A U64C] | 0.696
6 | GGGCGCCACAGCAGAUGCGUUCACGUCGCGGCCCCUGUCAGAUUCUGGUGAAUCUGCGAAUUCUGCUGU [G4C A16U] | 0.197
7 | GGGCGCCACAGCAGACGCGUUCACGUCGCGGCCCCUGUCAGAUUCUGGUGAAUCUGCGAAUUCUGCUGU [G4C A16C] | 0.0339
8 | GGGAGCCACAGCAGAAGCGUUCACGUCGCGGCCCCUGUCAUAUUCUGGUGAAUCUGCGAAUUCUGCUGU [G4A G41U] | 0.525
9 | GGGAGCCACAGCAGAAGCGUUCACGUCGCGGCCCCUGUCACAUUCUGGUGAAUCUGCGAAUUCUGCUGU [G4A G41C] | 0.341
10 | GGGAGCCACAGCAGAAGCGUUCACGUCGCGGCCCCUGUCAGAUUCUGGUGAAUCUGCCAAUUCUGCUGU [G4A G58C] | 0.701
11 | GGGAGCCACAGUAGAAGCGUUCACGUCGCGGCCCCUGUCAGAUUCUGGUGAAUCUGCGAAUUCUGCUGU [G4A C12U] | 0.876
12 | GGGCGCCACAGCAGAAGCGUUCUCGUCGCGGCCCCUGUCAGAUUCUGGUGAAUCUGCGAAUUCUGCUGU [G4C A23U] | 0.801
13 | GGGCGCCACAGCAGUAGCGUUCACGUCGCGGCCCCUGUCAGAUUCUGGUGAAUCUGCGAAUUCUGCUGU [G4C A15U] | 0.0935
14 | GGGAGCCACAGCAGAAGCGUUCACGUCGCGGCCCCUGUCAGAUUCUGGUGAAUCUACGAAUUCUGCUGU [G4A G56A] | 0.604
15 | GGGAGCCACAGCAGAAGCGUUCACGUCGAGGCCCCUGUCAGAUUCUGGUGAAUCUGCGAAUUCUGCUGU [G4A C29A] | 0.226
16 | GGGAGCCACAGCAGAAGCGUUCACGUCGCGGCCCCUGUCAGAUUCUGGUGAGUCUGCGAAUUCUGCUGU [G4A A52G] | 0.864
17 | GGGAGCCACAGCAGAAGCGUUCACGUCGCGGCCCCUGUCAGAUUCUGGUGACUCUGCGAAUUCUGCUGU [G4A A52C] | 0.763
18 | GGGAGCCACAGCAGAAGCGUACACGUCGCGGCCCCUGUCAGAUUCUGGUGAAUCUGCGAAUUCUGCUGU [G4A U21A] | 0.793
19 | GGGCGCCACAGCAGAAGCGUUCACGUCGCGGCCCCUGUCAGAUUCUGGUGAAUCUGCGAAUUCUGCUGU [G4C] | 0.69
20 | GGGAGCCACAGCAGAAGCGUUCACGUCGCGGCCGCUGUCAGAUUCUGGUGAAUCUGCGAAUUCUGCUGU [G4A C34G] | 0.16

Row | Variant | self-cleavage
21 | GGGAGCCACAGCAGAAGCGUUCACGUCGCGGCCCCUGUCAGAUUCUGGUGAAUCUGCGAAUUGUGCUGU [G4A C63G] | 0.521
22 | GGGAGCCACAGCAGAAGCGUUCACGUCGCGGCCCCUGUCAGAUUCUGGUGAAUCUGCGAAUUAUGCUGU [G4A C63A] | 0.483
23 | GGGAGCCACAGCAGAAGCGUUCACGUCGCGGCCCCUGUCAGAUUCUGGAGAAUCUGCGAAUUCUGCUGU [G4A U49A] | 0.852
24 | GGGAGCCACAGCAGAAGCGUUCACGUCGCGGCCCCUGUCAGAUUCUUGUGAAUCUGCGAAUUCUGCUGU [G4A G47U] | 0.899
25 | GGGAGCCACAGCAGAAGCGUUCACGUCGCGGCCCCUGUCAGAUUCUGGUGAAUCUGCGAAUUCUGCUGC [G4A U69C] | 1.04
26 | GGGAGCCACAGCAGAAGCGUUCACGUCGCGGCUCCUGUCAGAUUCUGGUGAAUCUGCGAAUUCUGCUGU [G4A C33U] | 0.968
27 | GGGAGCCACAGCAGAAGCGUUCACGUCGCGGCACCUGUCAGAUUCUGGUGAAUCUGCGAAUUCUGCUGU [G4A C33A] | 0.897
28 | GGGAGCGACAGCAGAAGCGUUCACGUCGCGGCCCCUGUCAGAUUCUGGUGAAUCUGCGAAUUCUGCUGU [G4A C7G] | 0.0338
29 | GGGAGCCACAGCAGAAGCAUUCACGUCGCGGCCCCUGUCAGAUUCUGGUGAAUCUGCGAAUUCUGCUGU [G4A G19A] | 0.092
30 | GGGAGCCACAGCAGAAGCGUUCACGUCGCGGCCCCAGUCAGAUUCUGGUGAAUCUGCGAAUUCUGCUGU [G4A U36A] | 0.13
31 | GGGAGCCACAGCAGAAGCGUUCACGUCGCGGCCCCUGUCAGUUUCUGGUGAAUCUGCGAAUUCUGCUGU [G4A A42U] | 0.721
32 | GGGAGCCACAGCAGAAGCGUUCACGUCGCGGCCCCUGUCAGAUUGUGGUGAAUCUGCGAAUUCUGCUGU [G4A C45G] | 0.691
33 | GGGAGCCACAGCAGAAGCGUUCACGUCGCGACCCCUGUCAGAUUCUGGUGAAUCUGCGAAUUCUGCUGU [G4A G31A] | 0.227
34 | GGGAGCCACAGCAGAAGCGUUCACCUCGCGGCCCCUGUCAGAUUCUGGUGAAUCUGCGAAUUCUGCUGU [G4A G25C] | 0.114
35 | GGGAGCCACAGCAGAAGCGUUCACGUGGCGGCCCCUGUCAGAUUCUGGUGAAUCUGCGAAUUCUGCUGU [G4A C27G] | 0.119
36 | GGGAGCCACAGCAAAAGCGUUCACGUCGCGGCCCCUGUCAGAUUCUGGUGAAUCUGCGAAUUCUGCUGU [G4A G14A] | 0.401
37 | GGGAGCCACAGCAGAAGCGUUCACGUCGCGGCCCCUGUCAGAUUCGGGUGAAUCUGCGAAUUCUGCUGU [G4A U46G] | 0.841
38 | GGGAGCCACAGCAGAAGCGUUCACGUCGCGGCCCCUGUCAGAUUCAGGUGAAUCUGCGAAUUCUGCUGU [G4A U46A] | 0.899
39 | GGGAGCCACAGCAGAAGCGCUCACGUCGCGGCCCCUGUCAGAUUCUGGUGAAUCUGCGAAUUCUGCUGU [G4A U20C] | 0.128
